Measurements taken from patent publication US11655308B2, “HM-3 fusion protein and application thereof” (TASLY BIOPHARMACEUTICALS CO., LTD., priority 2017, dated 2023).
Values joined by “and” are separate entries in the source; they are usually repeats but may differ in a detail not shown here. Equal values may be shown once.

Assay: Pharmacokinetics after single subcutaneous injection (double-antibody sandwich ELISA)

mIgG4-Fc-(GGGGS)3-HM-3 [TSL-4]
Plasma concentration (12.5 mg/kg sc, 20.00 h, Mean): 5407 ng/mL
Plasma concentration (12.5 mg/kg sc, 20.00 h, single rats No. 1-5): 1900 ng/mL and 3086 ng/mL and 5605 ng/mL and 3962 ng/mL and 12480 ng/mL
Plasma concentration (12.5 mg/kg sc, 24.00 h, Mean): 4248 ng/mL
Plasma concentration (12.5 mg/kg sc, 24.00 h, single rats No. 1-5): 1822 ng/mL and 2513 ng/mL and 2747 ng/mL and 3966 ng/mL and 10192 ng/mL
Plasma concentration (12.5 mg/kg sc, 28.00 h, Mean): 1907 ng/mL
Plasma concentration (12.5 mg/kg sc, 28.00 h, single rats No. 1-5): 336 ng/mL and 1653 ng/mL and 766 ng/mL and 2703 ng/mL and 4077 ng/mL
Plasma concentration (12.5 mg/kg sc, 41.00 h, Mean): 746 ng/mL
Plasma concentration (12.5 mg/kg sc, 41.00 h, single rats No. 1-5): 241 ng/mL and 700 ng/mL and 417 ng/mL and 1185 ng/mL and 1189 ng/mL
Plasma concentration (12.5 mg/kg sc, 53.00 h, Mean): 402 ng/mL
Plasma concentration (12.5 mg/kg sc, 53.00 h, single rats No. 1-5): 131 ng/mL and 542 ng/mL and 247 ng/mL and 734 ng/mL and 357 ng/mL
Plasma concentration (12.5 mg/kg sc, 65.00 h, Mean): 330 ng/mL
Plasma concentration (12.5 mg/kg sc, 65.00 h, single rats No. 1-5): 127 ng/mL and 396 ng/mL and 181 ng/mL and 648 ng/mL and 299 ng/mL
Plasma concentration (12.5 mg/kg sc, 77.00 h, Mean): 261 ng/mL
Plasma concentration (12.5 mg/kg sc, 77.00 h, single rats No. 1-5): 64 ng/mL and 285 ng/mL and 160 ng/mL and 505 ng/mL and 290 ng/mL
AUC 0-77 (12.5 mg/kg single sc): 116.1901 µg·h/mL
AUC 0-∞ (12.5 mg/kg single sc): 128.4302 µg·h/mL
MRT 0-77 (12.5 mg/kg single sc): 18.248 h
MRT 0-∞ (12.5 mg/kg single sc): 20.882 h
Tmax (12.5 mg/kg single sc): 7 ± 0.707 h
ka (12.5 mg/kg single sc): 0.247
t½ka (absorption half-life) (12.5 mg/kg single sc): 3.249 h
t½ke (elimination half-life) (12.5 mg/kg single sc): 32.321 ± 4.935 h
α, ke (12.5 mg/kg single sc): 0.149
Plasma concentration (37.5 mg/kg sc, 0.50 h, Mean): 1402 ng/mL
Plasma concentration (37.5 mg/kg sc, 0.50 h, single rats No. 1-5): 1180 ng/mL and 1202 ng/mL and 1816 ng/mL and 1534 ng/mL and 1277 ng/mL
Plasma concentration (37.5 mg/kg sc, 1.00 h, Mean): 2169 ng/mL
Plasma concentration (37.5 mg/kg sc, 1.00 h, single rats No. 1-5): 1974 ng/mL and 1514 ng/mL and 2370 ng/mL and 1151 ng/mL and 3838 ng/mL
Plasma concentration (37.5 mg/kg sc, 3.00 h, Mean): 13349 ng/mL
Plasma concentration (37.5 mg/kg sc, 3.00 h, single rats No. 1-5): 23044 ng/mL and 13341 ng/mL and 9819 ng/mL and 5861 ng/mL and 14678 ng/mL
Plasma concentration (37.5 mg/kg sc, 5.00 h, Mean): 19696 ng/mL
Plasma concentration (37.5 mg/kg sc, 5.00 h, single rats No. 1-5): 36313 ng/mL and 18726 ng/mL and 10891 ng/mL and 12949 ng/mL and 19600 ng/mL
Plasma concentration (37.5 mg/kg sc, 6.00 h, Mean): 27920 ng/mL
Plasma concentration (37.5 mg/kg sc, 6.00 h, single rats No. 1-5): 44277 ng/mL and 20173 ng/mL and 20450 ng/mL and 16158 ng/mL and 38541 ng/mL
Plasma concentration (37.5 mg/kg sc, 7.00 h, Mean): 35272 ng/mL
Plasma concentration (37.5 mg/kg sc, 7.00 h, single rats No. 1-5): 64960 ng/mL and 21479 ng/mL and 38009 ng/mL and 22359 ng/mL and 29552 ng/mL
Plasma concentration (37.5 mg/kg sc, 8.00 h, Mean): 30478 ng/mL
Plasma concentration (37.5 mg/kg sc, 8.00 h, single rats No. 1-5): 62784 ng/mL and 25446 ng/mL and 31080 ng/mL and 12944 ng/mL and 20137 ng/mL
Plasma concentration (37.5 mg/kg sc, 10.00 h, Mean): 24736 ng/mL
Plasma concentration (37.5 mg/kg sc, 10.00 h, single rats No. 1-5): 44656 ng/mL and 21055 ng/mL and 21153 ng/mL and 10006 ng/mL and 26810 ng/mL
Plasma concentration (37.5 mg/kg sc, 12.00 h, Mean): 19172 ng/mL
Plasma concentration (37.5 mg/kg sc, 12.00 h, single rats No. 1-5): 36576 ng/mL and 17149 ng/mL and 17361 ng/mL and 8919 ng/mL and 15856 ng/mL
Plasma concentration (37.5 mg/kg sc, 16.00 h, Mean): 11084 ng/mL
Plasma concentration (37.5 mg/kg sc, 16.00 h, single rats No. 1-5): 13903 ng/mL and 7767 ng/mL and 12942 ng/mL and 6885 ng/mL and 13925 ng/mL
Plasma concentration (37.5 mg/kg sc, 20.00 h, Mean): 7721 ng/mL
Plasma concentration (37.5 mg/kg sc, 20.00 h, single rats No. 1-5): 9514 ng/mL and 3313 ng/mL and 9915 ng/mL and 4605 ng/mL and 11259 ng/mL
Plasma concentration (37.5 mg/kg sc, 24.00 h, Mean): 4523 ng/mL
Plasma concentration (37.5 mg/kg sc, 24.00 h, single rats No. 1-5): 4801 ng/mL and 3205 ng/mL and 5617 ng/mL and 3076 ng/mL and 5918 ng/mL
Plasma concentration (37.5 mg/kg sc, 28.00 h, Mean): 2285 ng/mL
Plasma concentration (37.5 mg/kg sc, 28.00 h, single rats No. 1-5): 1952 ng/mL and 2730 ng/mL and 3953 ng/mL and 1833 ng/mL and 959 ng/mL
Plasma concentration (37.5 mg/kg sc, 41.00 h, Mean): 920 ng/mL
Plasma concentration (37.5 mg/kg sc, 41.00 h, single rats No. 1-5): 780 ng/mL and 912 ng/mL and 1824 ng/mL and 779 ng/mL and 303 ng/mL
Plasma concentration (37.5 mg/kg sc, 53.00 h, Mean): 407 ng/mL
Plasma concentration (37.5 mg/kg sc, 53.00 h, single rats No. 1-5): 431 ng/mL and 466 ng/mL and 510 ng/mL and 391 ng/mL and 237 ng/mL
Plasma concentration (37.5 mg/kg sc, 65.00 h, Mean): 312 ng/mL
Plasma concentration (37.5 mg/kg sc, 65.00 h, single rats No. 1-5): 357 ng/mL and 301 ng/mL and 370 ng/mL and 291 ng/mL and 243 ng/mL
Plasma concentration (37.5 mg/kg sc, 77.00 h, Mean): 215 ng/mL
Plasma concentration (37.5 mg/kg sc, 77.00 h, single rats No. 1-5): 269 ng/mL and 253 ng/mL and 169 ng/mL and 244 ng/mL and 138 ng/mL
AUC 0-77 (37.5 mg/kg single sc): 166.338 µg·h/mL
AUC 0-∞ (37.5 mg/kg single sc): 176.11 ± 39.59645 µg·h/mL
MRT 0-77 (37.5 mg/kg single sc): 13.988 h
MRT 0-∞ (37.5 mg/kg single sc): 15.755 h
Tmax (37.5 mg/kg single sc): 7 ± 0.707 h
ka (37.5 mg/kg single sc): 0.116
t½ka (absorption half-life) (37.5 mg/kg single sc): 3.079 h
t½ke (elimination half-life) (37.5 mg/kg single sc): 34.356 ± 1.578 h and 34.355 h
α, ke (37.5 mg/kg single sc): 0.197
pharmacokinetic characteristics (4.17, 12.5, 37.5 mg/kg sc): consistent with linear pharmacokinetic characteristics
